This is an account of results in the supplement of paper PMC12042874.

± gives the uncertainty stated by the source.

This series is described as follows: amyloid nucleation score (Sup35N fusion, yeast selection) (log enrichment); library NNK3; higher = more nucleation; inactive = no reads after selection. In outline:
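Peptides of 20 random codons, each fused to Sup35N, were expressed in psi-negative yeast. Cells were induced with 100 μM copper sulfate for 24 hours and grown 7 days at 30°C on medium lacking adenine and uracil, and plasmid inserts before and after selection were Illumina-sequenced. Nucleation scores are DiMSum log enrichments of output over input reads, centred on the mode score of non-aggregating sequences, and sequences under 100 input reads were excluded.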
PHGNVLVLYDKRVLSCVEWN gave an amyloid nucleation score of 0.428 ± 0.46. Next, PHMQCLINF: “inactive”; PHSYA: “inactive”. Turning to PIAFQRKSSCIKSRESGSVR, the amyloid nucleation score entry was “inactive”. PIFWGSSDDYLCRWTLTMCH had an amyloid nucleation score of -0.3 ± 0.37.

Take PIGGLEFNMGFRYRVIRVTM: the amyloid nucleation score was -0.436 ± 1.7. For PKEYTRAGNVSSRRGLFYHF, the amyloid nucleation score entry is “inactive”.

On to PKTIRDVYVDGEEHVHFRWR, for which the amyloid nucleation score entry is “inactive”. Regarding PLCVWVWKLRVVFRRLYFEF, the amyloid nucleation score result is “inactive”. To PLFSYLRHSTGCTFAIPNSE belongs “inactive”. To PLGERRTPSYPVASLP belongs -0.223 ± 0.88; to PLGSLHSATQRYVSRLGILS, “inactive”; to PLHRSE, “inactive”. Next, PLLIAVQWTMTAGCRSHKLL: -0.781 ± 2.5.

Take PLNDNRRVPAISVFKECQTS: the amyloid nucleation score entry is “inactive”. To PLRPKLFFERNGSGYRQNRA belongs “inactive”; to PLSTITDGLMRSLVTLVGHS, “inactive”.

For the substance PLWTPDGPLIGVVFVLSNNV, the amyloid nucleation score came to 1.03 ± 0.15. Consider PMKFQVFGVSQGVR, for which the amyloid nucleation score result is “inactive”. Next, PMVISHMGLFFLKVGISR: “inactive”; PMYTMRVWLMMSS: “inactive”; PNAIILVQYTYIVGMRGGHS: 1.11 ± 0.08. Consider PNALDRIYSG, for which the amyloid nucleation score result was “inactive”. To PNCVISSLTFRWVIFSECEP belongs “inactive”; to PNHELYM, “inactive”. To PNLYIMYGAFKIVLHSPDWG belongs “inactive”; to PNVLLIRVLIERSCKVGWNS, “inactive”. In the case of PPPCKYLPAEVGLLFKSSLG, the amyloid nucleation score entry was “inactive”.

For PQDKRASACRVWAPNKNGRG, the amyloid nucleation score entry was “inactive”. In the case of PRASYMGRSKL, the amyloid nucleation score entry is “inactive”. On to PRDGVFLVKGDRPC, for which the amyloid nucleation score entry is “inactive”. Regarding PRDNILTPQHV, the amyloid nucleation score entry was “inactive”. With PRFMKVRRWYSNLM, the amyloid nucleation score entry was “inactive”. For PRFYANRFTVLFLYNLDI, the amyloid nucleation score is -0.227 ± 1.1. Next, PRISQEDVFARTARVDLGLQ: “inactive”; PRNRSVGKMLTRINNSFSRA: “inactive”; PRRMHMGHAVFDIMGTLRSK: 0.9 ± 0.15.

Consider PRSCN, for which the amyloid nucleation score result is “inactive”. To PRSVLINLLHRTHVCCRLFS belongs “inactive”; to PRSVVMYNNFINWYKTHKYY, 1.62 ± 0.067.

As for PSCSRSVTMWKSRNLFIQLA, the amyloid nucleation score entry is “inactive”. Turning to PSDDYGHLVWLTICCNCLD, the amyloid nucleation score came to 1.6 ± 0.079. As for PSGTFFNSVVYGRWYKLKRK, the amyloid nucleation score was -0.34 ± 0.93. Take PSSFKMY: the amyloid nucleation score entry was “inactive”. Turning to PSTSVPTDMMRFSIYSLLRS, the amyloid nucleation score entry was “inactive”. For PSVFVRVLEKNRDLMMRTAS, the amyloid nucleation score entry is “inactive”. As to PSVIFRDWFEKMWLDRISVV, the amyloid nucleation score entry was “inactive”.

With PTELYFHPDI, the amyloid nucleation score entry was “inactive”. Next, PTHLCFLQFTVAIFVSGIRA: 0.851 ± 0.12. To PTIHGVMGVEPMSYSLL belongs “inactive”. PTSKGYVVYKETWVLDRSKM had an amyloid nucleation score of 1.07 ± 0.17. Next, PTVQCC: “inactive”; PVDKCRCGGWNLSHLHKLSS: -0.615 ± 1.7.

PVHGSKGPSGHVCRQCGFLM: the amyloid nucleation score result is “inactive”. To PVMLGYGMGYSATVVKGCCL belongs “inactive”; to PVQRTLVRAVSESFR, 0.899 ± 0.13.

Consider PVRIEYQ, for which the amyloid nucleation score entry is “inactive”. Next, PVRSR: “inactive”; PVSICQFIVSMANFDLCSQG: 1.93 ± 0.068; PVTVFWVTMTSWYVNIRG: “inactive”.

In the case of PVYGRIKANLKMGLAGGSWV, the amyloid nucleation score entry is “inactive”.

As for PWALTMRNVLSKYMFGGGLR, the amyloid nucleation score entry is “inactive”.

As for PWDWWVDSACWRRRPVDDPR, the amyloid nucleation score result was “inactive”. In the case of PWKCTWFMALEVFRMYLRSF, the amyloid nucleation score entry was “inactive”. To PYARRMWHGVLVRDIGLYTR belongs “inactive”; to PYCNRWFSDRGSWDVHRSWV, “inactive”. To PYFQFGSSCE belongs “inactive”; to PYGKFRLNPLD, 0.652 ± 0.17. To PYLLMWSA belongs “inactive”; to PYMWGFIKRWNRNCAGSFAL, “inactive”. Take QAKGIRYVGGLTWYNH: the amyloid nucleation score result was “inactive”.

For QCHSLYSWNDGWC, the amyloid nucleation score entry is “inactive”. With QCSDVLYY, the amyloid nucleation score entry is “inactive”. To QCSIFIIC belongs 2.41 ± 0.076. To QCSWLCIWMGVYLTLILSCA belongs 0.805 ± 0.17; to QCTASLEHHFVNNQDNASAW, “inactive”. Turning to QDAMSTEVEGTF, the amyloid nucleation score entry is “inactive”. To QDHDVSYSSCPGYSVMVMEG belongs -0.399 ± 0.8; to QDLTLLCVSIWWKLGWSESR, “inactive”. Next, QDTLYMLDPGG: -0.318 ± 0.7. As to QDYTWVFEVSWAPKGGNLNV, the amyloid nucleation score result is “inactive”. Next, QERTKSFWPLLLALALPSDQ: “inactive”. Next, QFIDRNVWLISSGFRTRFDI: “inactive”; QFLIVGFAYLPSLA: “inactive”. To QFLKGDCRYLDPGMDLDRG belongs “inactive”.

In turn, QFSSS came in with an amyloid nucleation score of -1.13 ± 1.3. To QFSVCCCRHLPLYMTKAVIA belongs “inactive”; to QFVASELYVIGFTAVWLGCI, 0.902 ± 0.2.

QGNCLFVKVG: the amyloid nucleation score entry was “inactive”. To QHAQGYLRGSTMYFEMM belongs 0.357 ± 0.25; to QHKQVNGFTITYTLGHCYTY, “inactive”. As for QHSGRWCGAPALGNLVAMSS, the amyloid nucleation score result was “inactive”. To QHSSLKWYLYDYRFLLYTVL belongs -0.562 ± 0.5; to QHTGGVLRRTMFINRVSRRM, “inactive”.

In the case of QHYLVYY, the amyloid nucleation score result is “inactive”. Next, QICHRGEGFWPINSSIRKVV: “inactive”; QINSSLDMMRHTFCSEGYAV: “inactive”.
